This is an account of results in patent US20260263599A1 (AUTOLUS, published 2026).

Where a chain is given by its changes, count along the chain named.

The target in the test is T1, T Cell Receptor Beta Constant 2 (TRBC2) (human, UniProt A0A5B9 1-144, limits assumed).
T1 construct: ELISA antigen; also called TCR beta constant region 2
The experiment in a line: ELISA.

T1 sequence (A0A5B9 1-144 limits assumed): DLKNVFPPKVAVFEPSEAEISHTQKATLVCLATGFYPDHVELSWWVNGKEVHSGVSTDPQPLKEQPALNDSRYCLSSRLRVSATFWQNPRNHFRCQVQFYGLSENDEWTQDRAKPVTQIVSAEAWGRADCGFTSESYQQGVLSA

B1: Jovi Hum 8 (antibody, V domains shown)
VH: QVQLVQSGAEVKKPGASVKVSCKASGYTFTGYVMHWVRQAPGQGLEWMGFINPYNDDIQSNERFRGRVTMTRDTSISTAYMELSRLRSDDTAVYYCARGAGYNFDGAYRFFDFWGQGTMVTVSS
VL: DIVMTQSPLSLPVTPGEPASISCRSSQRLVHSNGNTYLHWYLQKPGQSPRLLIYRVSNRFPGVPDRFSGSGSGTDFTLKISRVEAEDVGVYYCSQSTHVPYTFGQGTKLEIK
notes: also called H-AF 1; humanised antibody with H-AF062256 VH and 3aaz VL
Turning to B1, the binding result was “no binding”.

B2: Jovi Hum 21 (antibody, V domains shown)
VH: B1 VH with M48I, R72S
VL: B1 VL
notes: also called H-AF 7
Take B2: the binding result was “no binding”.

B3: Jovi Hum 19 (antibody, V domains shown)
VH: B1 VH with M48I
VL: B1 VL
notes: also called H-AF 5
For the molecule B3, the binding result is reported as “no binding”.

B4: Jovi Hum 18 (antibody, V domains shown)
VH: B1 VH with R72S, T74K
VL: B1 VL
notes: also called H-AF 4
On to B4, for which the binding result is given as “no binding”.

B5: Jovi Hum 26 (antibody, V domains shown)
VH: B1 VH with V20M, R72S, T74K
VL: B1 VL
notes: also called H-AF 12
Take B5: the binding result was “no binding”.

B6: Jovi Hum 20 (antibody, V domains shown)
VH: B1 VH with M48I, T74K
VL: B1 VL
notes: also called H-AF 6
As for B6, the binding result was “no binding”.

B7: Jovi Hum 17 (antibody, V domains shown)
VH: B1 VH with R72S
VL: B1 VL
notes: also called H-AF 3
Regarding B7, the binding result was “no binding”.

B8: Jovi Hum 16 (antibody, V domains shown)
VH: B1 VH with T74K
VL: B1 VL
notes: also called H-AF 2
With B8, the binding result is “no binding”.

B9: Jovi Hum 27 (antibody, V domains shown)
VH: B1 VH with V20M, M48I
VL: B1 VL
notes: also called H-AF 13
Consider B9, for which the binding result is “no binding”.
